From the nanobody polyreactivity screen of Harvey et al. (2022)

Experiment: yeast display, Sf9 membrane polyspecificity reagent, FACS + sequencing; frameworks hold sequencing errors
How it was run: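 Using colony PCR, genes from sorted yeast display clones were amplified, then sequenced on MiSeq at 2 × 250 and filtered by CDR length. The clones had been stained with 10% biotinylated, detergent-solubilized Sf9 membrane reagent for 1 hour at 4 °C and sorted by FACS into low and high (top ~1%) gates on anti-HA and streptavidin fluorescence. Polyreactivity labels come from the gate of origin.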

Row | Sequence | polyreactivity (PSR sort gate)
1 | QVQLEESGGGLVQAGGSLRLSCAASGFIFVRNAMGWYRQAPGKERELVAAITRSGGSTSYADSVKGRFTISRDNAKNTVYLQMNSLKPEDTAVYYCAPQYGYWGQGTQVTVSS | high polyreactivity
2 | QVQLEESGGGLVQAGGSLRLSCAASGFIFYWYAMGWYIKAPGKERELVAAITRSGGRTYYADSVKGRFTFSRDNAKNTVYLQMNRLKPEDTAVYYCNAGYWLSPYKFGYWGQGTQVTVSS | high polyreactivity
3 | QVQLEESGGGLVQAGGSLRLSCAASGFIYRGYTMGWYRTAPGKERELVAGITSTASTNYADSVKGRFTISRDNAKNTVYLQMNSLKPEDTAVYYCAAGVPYRLRNRYYYWGQGTQVTVSS | high polyreactivity
4 | QVQLEESGGGLVQAGGSLRLSCAASGFSFVTYPMGWYRQAPGKEREFVATISRSGGSTYYADSVKGRFTISRDNAKNTVYLQMNSLKPEDTAVYYCAARGRYPYRYGYWGQGTQVTVSS | high polyreactivity
5 | QVQLEESGGGLVQAGGSLRLSCAASGFTFELYAMGWYRQAPGKVRELVAAISYSGGSTYYADSVKGRFTISRDNAKNTVYLQMNSLKPEDTAVYYCNAVYWPYSGPVYTIVDYWGQGTQVTVSS | low polyreactivity
6 | QVQLEESGGGLVQAGGSLRLSCAASGFTFGSYAMGWYRQAPGKEREFVAAISLGGARTYYADSVKGRFTMSRDNAKNTVYLQMHSLKPEDTAVYYGNARGIGRSTKWSSRDYWGQGTQVTVSS | high polyreactivity
7 | QVQLEESGGGLVQAGGSLRLSCAASGFTFNPYTMGWYRQAPGKERELVAAITSSGGSTYYADSVKGRFTISRDNAKNTVYLQMNSLKPEDTAVYYCAKLRTASIYDYWGQGTQVTVSS | low polyreactivity
8 | QVQLEESGGGLVQAGGSLRLSCAASGFTFPWNVMGWYRQAPGKEREFVAAISKSAGSTFYADSVKGRFTISRDNAKNTVYLQMNSLKPEDTAVYYCAKPRVPGVHVQEMYYWGQGTQVTVSS | low polyreactivity
9 | QVQLEESGGGLVQAGGSLRLSCAASGFTFRLYAMGWYRHAPGKERELFARISSGGSTHYADSVKGRFTISRDNAKNTVFLQMNSLKPEDTAVYYCAAGWGYWRSYGSWGQGTQVTFSS | high polyreactivity
10 | QVQLEESGGGLVQAGGSLRLSCAASGFTFRRYAMGWYRQAPGKERELVAAITRSGSSTYYADSVKGRFTISRDNAKNTVYLQMNSLKPEDTAVYYCARYHLRPTDGFDYWGQGTQVTVSS | high polyreactivity
11 | QVQLEESGGGLVQAGGSLRLSCAASGFTFSGYDMGWYRQAPGKERELVAGISSGGVSTTYADSVKGRFTISRDNAKNTVYLQMNSLKPEDTAVYYCNAEWTSFDWGQGTQVTVSS | low polyreactivity
12 | QVQLEESGGGLVQAGGSLRLSCAASGFTFSGYDMGWYSPAPGKERELVAGISYGGVSTTYADSVKGRFTISRDNAKNTVYVQMNSLKPEDTAVYYCNAEWTSFDWGQGTQVTVSS | low polyreactivity
13 | QVQLEESGGGLVQAGGSLRLSCAASGGTFTNYAMGWYRQAPGTERELVAAITDSGATTYYADSVKGRFTISRDNAKNTVYLQMNRLKPEDNAVYYCNAELDLYTDFDYWGQGTQVTESS | low polyreactivity
14 | QVQLEESGGGLVQAGGSLRLSCAASGIIFAYYAMGWYRQAPGKERELVGTNYADSVKGRFTISRDNAKNTVYLQMNSLKPEDTAVYYCAVVGGEFSSYGYWGQGTLVTVSS | low polyreactivity
15 | QVQLEESGGGLVQAGGSLRLSCAASGIIFSYYDMGRYRQAPGKERELVATITRKGGSTYYADTVKGRFTISRDYAKNTVYFQMNSLKPEDTAVYYCAAQTTVYIYDYWGQGSQVTVSS | low polyreactivity
16 | QVQLEESGGGLVQAGGSLRLSCAASGIIFWWYAMGWYRQAPGKERELVAAISGTGGSTYYADSVKGRFTISRDNAKNTVYLQINRLKPEDTAVYFCAARGKSSSFYDYDYWGQGTQVTVSS | low polyreactivity
17 | QVQLEESGGGLVQAGGSLRLSCAASGITFPRYAMGWYRQAPGKERELVAAIRWNGGSTYYADSVKGRFTISRDNAKNTVYLQMNSLKPEDTAVYYCAARKDPSFSSFGYGYWGQGTQVTVSS | high polyreactivity
18 | QVQLEESGGGLVQAGGSLRLSCAASGITFRAYAMGWYRQAPGKERELVAAITGRGGRTYYADSVKGRFTISRDNAKNTVYLQMNSLKPEDPAVYYCNAYLWRVNQTYDYWGQGTQVTVSS | high polyreactivity
19 | QVQLEESGGGLVQAGGSLRLSCAASGITFRYYAMGWYRQAPGKEWELVAAITRSGSSTFYADSVKGRFTISRDNAKNTVYLQMNSLKPEDSAVYYCAAESVRAVFPDRYKYWGQGTQVTVSS | high polyreactivity
20 | QVQLEESGGGLVQAGGSLRLSCAASGITFSDYAMGWYRQAPGKERELVAGISFTVGSTYYADSVKRPFTISRDNAKNTVYLQMNSLKPEDTAVYLCNADSFVDLDYWGQGTQVTVSS | low polyreactivity
21 | QVQLEESGGGLVQAGGSLRLSCAASGITFVDYDMGWYRQATGKERELVAAITTGSSTYYADSVKGRFTISRDNAKNTVYLQMNSLKPEDTAVYYCARDLEYDYYQQWSYGYWGQGTQVTVSS | low polyreactivity
22 | QVQLEESGGGLVQAGGSLRLSCAASGITFWHNTMGWYRQATGKEREMVAAISWTGGRTYYADSVKGRFTISRDNAKNTVYLQMNSLKPDDTAVYYCAADFSWTPSGNYDSWGQGTQVTVSS | low polyreactivity
23 | QVQLEESGGGLVQAGGSLRLSCAASGITLAHNAMGWYRQAAGKERELVASITESGGSTYYADSVKGRFTISRDNAKNTVYLQMNRLKPEDTAVYYCAVRPTVGYWTVYYWGQGTQVTVSS | high polyreactivity
24 | QVQLEESGGGLVQAGGSLRLSCAASGITSPAYAMGWYRQAPGKEREFVAAISSSGGSTYYADSVKGRFTISRDNAKNTVYLQMNSLKPEDTAVYYCAVRGRISSVSRYGYWGQGTQVTVSS | high polyreactivity
25 | QVQLEESGGGLVQAGGSLRLSCAASGLTFAYNTMGWYRQAPGKEREFVASISSSGGNTYYADSVKGRFTISRDNAKNTVYLQMNSLKPEDTAVYYCAAKKKYHYVASYKRFEYWGQGTQVTVSS | low polyreactivity
26 | QVQLEESGGGLVQAGGSLRLSCAASGLTFPSNAMGWYRQATGKERALVASISKRGGRTYYADSVKGRFTISRDNAKHTVYLQMNSLKPEDTAVYDCATPYAYPGSVQYAGYNYWGQGTQVTVSS | high polyreactivity
27 | QVQLEESGGGLVQAGGSLRLSCAASGNIFPRYAMGWYRQAPGKERELVAAISYSGARTYYADSVKGRFTISRDNAKNTVYLQMNSLKPEDTAVYYCNKRVYYPWGQGTQVTVSS | high polyreactivity
28 | QVQLEESGGGLVQAGGSLRLSCAASGRIFNTNAMGSYRQAPGKERELVAGITYSGDSTYYADSVKGRFTISRDNAKNTVYLQMNSLKPEDTAVYYCATDPASPYLYDYWGQGTQVTVSS | low polyreactivity
29 | QVQLEESGGGLVQAGGSLRLSCAASGRIFPRNAMGWYRQATGKERELVASITSGGSTNYADSVKGRFTISRDNAKNTVYLQMHSLKPEDTAVYYCAADRTGYQLETTEYDYWGQGTQVTVSS | high polyreactivity
30 | QVQLEESGGGLVQAGGSLRLSCAASGRIFPTYVMGWYRQAPGKERELVAAITSIDGRTYYADSVKGRFTISRDNAKNTVYLQMNSLKPEDTAVYYCAADYDYLSISEGYYWGQGTQVTVSS | low polyreactivity
